The supplement of paper PMC9112550, “Optimization of the antimicrobial peptide Bac7 by deep mutational scanning” (BMC Biology, 2022)

Tested on: Escherichia coli TOP10
Assay: shrunken log2 fold change of peptide-encoding DNA abundance (4.5 h post-induction vs induction); higher = less antimicrobial activity (less host growth inhibition)
Conditions: time post-induction: 4.5 h; library: site-saturation at positions 5, 18, 19, 20
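Further: peptides expressed intracellularly from a pBAD plasmid library in pooled LB shake-flask culture, induced with 0.3% L-arabinose, DNA abundance read by NGS, three biological replicates, DESeq2 with apeglm shrinkage.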

| Sequence | shrunken log2 fold change |
| --- | --- |
| RRIRIRPPRLPRPRPRPAIPPRP | -0.169 |
| RRIRVRPPRLPRPRPRPLAWPRP | 0.0442 |
| RRIRERPPRLPRPRPRPKLIPRP | -0.0786 |
| RRIRSRPPRLPRPRPRPMMSPRP | 0.0638 |
| RRIRERPPRLPRPRPRPRHCPRP | -0.133 |
| RRIRPRPPRLPRPRPRPDLVPRP | -0.0293 |
| RRIRVRPPRLPRPRPRPCPKPRP | -0.0457 |
| RRIRDRPPRLPRPRPRPEFRPRP | 0.283 |
| RRIRCRPPRLPRPRPRPNDDPRP | -0.161 |
| RRIRSRPPRLPRPRPRPPYHPRP | -0.584 |
| RRIRKRPPRLPRPRPRPWTHPRP | 0.0375 |
| RRIRKRPPRLPRPRPRPMKKPRP | 0.172 |
| RRIRCRPPRLPRPRPRPYVIPRP | -0.381 |
| RRIRNRPPRLPRPRPRPYNKPRP | -0.963 |
| RRIRIRPPRLPRPRPRPQRIPRP | -0.536 |
| RRIRNRPPRLPRPRPRPRLHPRP | 0.0921 |
| RRIRRRPPRLPRPRPRPTVNPRP | 0.15 |
| RRIRERPPRLPRPRPRPSTHPRP | -0.663 |
| RRIRRRPPRLPRPRPRPQTTPRP | 0.137 |
| RRIRCRPPRLPRPRPRPGPKPRP | 0.3 |
| RRIRFRPPRLPRPRPRPTASPRP | 0.384 |
| RRIRTRPPRLPRPRPRPWVCPRP | -1.58 |
| RRIRCRPPRLPRPRPRPEAEPRP | 0.656 |
| RRIRGRPPRLPRPRPRPDWGPRP | 0.242 |
| RRIRMRPPRLPRPRPRPMMFPRP | 0.251 |

| Sequence | shrunken log2 fold change |
| --- | --- |
| RRIRNRPPRLPRPRPRPFSLPRP | -0.0274 |
| RRIRFRPPRLPRPRPRPLMMPRP | -0.347 |
| RRIRYRPPRLPRPRPRPHFYPRP | -0.662 |
| RRIRHRPPRLPRPRPRPHAMPRP | -0.00419 |
| RRIRKRPPRLPRPRPRPVMAPRP | 0.588 |
| RRIRCRPPRLPRPRPRPMNEPRP | -0.307 |
| RRIRPRPPRLPRPRPRPSVSPRP | -0.504 |
| RRIRPRPPRLPRPRPRPGSSPRP | -0.0653 |
| RRIRIRPPRLPRPRPRPMWRPRP | 0.19 |
| RRIRIRPPRLPRPRPRPLHWPRP | -0.138 |
| RRIRLRPPRLPRPRPRPMGRPRP | 0.0605 |
| RRIRWRPPRLPRPRPRPRVIPRP | -0.233 |
| RRIRSRPPRLPRPRPRPTQDPRP | 0.445 |
| RRIRDRPPRLPRPRPRPFLNPRP | -0.243 |
| RRIRRRPPRLPRPRPRPMFMPRP | -0.192 |
| RRIRKRPPRLPRPRPRPHGYPRP | 0.0773 |
| RRIRYRPPRLPRPRPRPNRWPRP | 0.135 |
| RRIRQRPPRLPRPRPRPRDHPRP | 0.423 |
| RRIRCRPPRLPRPRPRPPANPRP | 0.521 |
| RRIRDRPPRLPRPRPRPDMCPRP | -0.0138 |
| RRIRRRPPRLPRPRPRPYVDPRP | -0.102 |
| RRIRERPPRLPRPRPRPQKKPRP | 0.0196 |
| RRIRFRPPRLPRPRPRPGLFPRP | -0.143 |
| RRIRDRPPRLPRPRPRPDSHPRP | 0.0162 |
| RRIRPRPPRLPRPRPRPGDQPRP | 3.33 |

| Sequence | shrunken log2 fold change |
| --- | --- |
| RRIRIRPPRLPRPRPRPDHCPRP | -0.0229 |
| RRIRGRPPRLPRPRPRPHYNPRP | -0.265 |
| RRIRGRPPRLPRPRPRPYIPPRP | -0.801 |
| RRIRQRPPRLPRPRPRPFCLPRP | -0.336 |
| RRIRCRPPRLPRPRPRPNIDPRP | -0.539 |
| RRIRKRPPRLPRPRPRPWQHPRP | -0.0281 |
| RRIRNRPPRLPRPRPRPSHFPRP | -0.647 |
| RRIRDRPPRLPRPRPRPPSGPRP | 0.364 |
| RRIRYRPPRLPRPRPRPDITPRP | -0.385 |
| RRIRCRPPRLPRPRPRPRGFPRP | 0.249 |
| RRIRFRPPRLPRPRPRPTPPPRP | 0.797 |
| RRIRNRPPRLPRPRPRPTHTPRP | -0.191 |
| RRIRLRPPRLPRPRPRPSPSPRP | -0.218 |
| RRIRCRPPRLPRPRPRPHNCPRP | -0.491 |
| RRIRMRPPRLPRPRPRPECFPRP | 1.35 |
| RRIRYRPPRLPRPRPRPLNNPRP | -1.29 |
| RRIRYRPPRLPRPRPRPIKPPRP | -0.0229 |
| RRIRHRPPRLPRPRPRPHINPRP | -0.563 |
| RRIRLRPPRLPRPRPRPWFHPRP | -0.352 |
| RRIRLRPPRLPRPRPRPVESPRP | -0.0112 |
| RRIRVRPPRLPRPRPRPMYVPRP | 3.48 |
| RRIRIRPPRLPRPRPRPQPVPRP | -0.169 |
| RRIRHRPPRLPRPRPRPLPRPRP | 0.176 |
| RRIRERPPRLPRPRPRPITCPRP | 0.0303 |
| RRIRERPPRLPRPRPRPMGIPRP | -0.113 |

| Sequence | shrunken log2 fold change |
| --- | --- |
| RRIRFRPPRLPRPRPRPVMWPRP | 0.0942 |
| RRIRTRPPRLPRPRPRPEFFPRP | -0.0853 |
| RRIRCRPPRLPRPRPRPDMPPRP | -0.253 |
| RRIRQRPPRLPRPRPRPQNNPRP | -0.54 |
| RRIRCRPPRLPRPRPRPSAQPRP | 0.336 |
| RRIRPRPPRLPRPRPRPLYLPRP | -0.625 |
| RRIRARPPRLPRPRPRPPMHPRP | 0.51 |
| RRIRMRPPRLPRPRPRPKVDPRP | -0.0311 |
| RRIRHRPPRLPRPRPRPGETPRP | -0.00149 |
| RRIRDRPPRLPRPRPRPSVWPRP | 0.404 |
| RRIRCRPPRLPRPRPRPAPYPRP | 0.0992 |
| RRIRYRPPRLPRPRPRPNLQPRP | -0.614 |
| RRIRYRPPRLPRPRPRPSENPRP | -0.235 |
| RRIRKRPPRLPRPRPRPVGRPRP | 0.21 |
| RRIRNRPPRLPRPRPRPPNWPRP | 0.217 |
| RRIRERPPRLPRPRPRPARCPRP | 0.114 |
| RRIRHRPPRLPRPRPRPGFCPRP | -0.0484 |
| RRIRWRPPRLPRPRPRPDIFPRP | -0.029 |
| RRIRYRPPRLPRPRPRPWRKPRP | -0.296 |
| RRIRHRPPRLPRPRPRPTMDPRP | -0.179 |
| RRIRTRPPRLPRPRPRPLILPRP | -0.839 |
| RRIRARPPRLPRPRPRPVIYPRP | -0.308 |
| RRIRMRPPRLPRPRPRPHHMPRP | -0.321 |
| RRIRTRPPRLPRPRPRPSIGPRP | -0.272 |
| RRIRKRPPRLPRPRPRPGQDPRP | 0.37 |

| Sequence | shrunken log2 fold change |
| --- | --- |
| RRIRQRPPRLPRPRPRPDLTPRP | 0.00424 |
| RRIRPRPPRLPRPRPRPHVLPRP | -0.0256 |
| RRIRIRPPRLPRPRPRPKRNPRP | -0.0625 |
| RRIRVRPPRLPRPRPRPKIAPRP | 0.0892 |
| RRIRNRPPRLPRPRPRPSTKPRP | -0.0203 |
| RRIRTRPPRLPRPRPRPLVIPRP | -0.44 |
| RRIRSRPPRLPRPRPRPPDEPRP | 0.813 |
| RRIRWRPPRLPRPRPRPINRPRP | -0.328 |
| RRIRERPPRLPRPRPRPNDPPRP | -0.488 |
| RRIRDRPPRLPRPRPRPNFYPRP | -0.109 |
| RRIRQRPPRLPRPRPRPHHEPRP | 0.0974 |
| RRIRARPPRLPRPRPRPCCQPRP | 0.102 |
| RRIRSRPPRLPRPRPRPVTIPRP | -0.373 |
| RRIRQRPPRLPRPRPRPAPYPRP | 0.204 |
| RRIRMRPPRLPRPRPRPFLMPRP | -0.0208 |
| RRIRYRPPRLPRPRPRPIADPRP | 0.0616 |
| RRIRHRPPRLPRPRPRPRQSPRP | 0.144 |
| RRIRSRPPRLPRPRPRPNTKPRP | -0.259 |
| RRIRRRPPRLPRPRPRPSNVPRP | 0.27 |
| RRIRPRPPRLPRPRPRPVNPPRP | 0.0675 |
| RRIRRRPPRLPRPRPRPALRPRP | 0.648 |
| RRIRGRPPRLPRPRPRPRDGPRP | 1.27 |
| RRIRWRPPRLPRPRPRPFYIPRP | -0.632 |
| RRIRERPPRLPRPRPRPHQQPRP | 0.119 |
| RRIRVRPPRLPRPRPRPSVEPRP | -0.0446 |

| Sequence | shrunken log2 fold change |
| --- | --- |
| RRIRGRPPRLPRPRPRPGEKPRP | 1.4 |
| RRIRFRPPRLPRPRPRPHPTPRP | -0.133 |
| RRIRIRPPRLPRPRPRPNQIPRP | -0.713 |
| RRIRFRPPRLPRPRPRPVNIPRP | -0.16 |
| RRIRCRPPRLPRPRPRPYVAPRP | -0.858 |
| RRIRQRPPRLPRPRPRPLPMPRP | 0.0747 |
| RRIRNRPPRLPRPRPRPPPTPRP | 0.867 |
| RRIRLRPPRLPRPRPRPLDKPRP | -0.122 |
| RRIRWRPPRLPRPRPRPFPDPRP | 0.116 |
| RRIRWRPPRLPRPRPRPNRNPRP | -0.602 |
| RRIRCRPPRLPRPRPRPSAEPRP | 0.153 |
| RRIRTRPPRLPRPRPRPDTMPRP | 0.0881 |
| RRIRWRPPRLPRPRPRPKLKPRP | 0.507 |
| RRIRQRPPRLPRPRPRPGHDPRP | -0.112 |
| RRIRERPPRLPRPRPRPTPNPRP | 0.0742 |
| RRIRGRPPRLPRPRPRPGDSPRP | 0.276 |
| RRIRQRPPRLPRPRPRPTCQPRP | -0.125 |
| RRIRFRPPRLPRPRPRPTRSPRP | 0.189 |
| RRIRLRPPRLPRPRPRPILTPRP | -0.281 |
| RRIRVRPPRLPRPRPRPECCPRP | 0.0234 |
| RRIRNRPPRLPRPRPRPQVIPRP | -0.000921 |
| RRIRVRPPRLPRPRPRPCQHPRP | -0.09 |
| RRIRRRPPRLPRPRPRPYWFPRP | -0.299 |
| RRIRDRPPRLPRPRPRPYNPPRP | -0.309 |
| RRIRVRPPRLPRPRPRPLECPRP | -0.041 |
